In patent US20260146071A1, “CCR2 INHIBITORS AND METHODS OF USE” (ORION BIOTECHNOLOGY USA Corp., priority 2022, published 2026):
Like-named read-outs stand apart in the source and are kept apart here. Where no end group is shown, it is not given here. [ ]: non-standard residue; d: D form. Nle = CCCC[C@H](N)C(=O)O

Biological target: T1, CCR2 (Homo sapiens, UniProt P41597)
T1 construct: endogenous in cells; host or cells: THP-1
T1 sequence (P41597 1-360 isoform P41597-2): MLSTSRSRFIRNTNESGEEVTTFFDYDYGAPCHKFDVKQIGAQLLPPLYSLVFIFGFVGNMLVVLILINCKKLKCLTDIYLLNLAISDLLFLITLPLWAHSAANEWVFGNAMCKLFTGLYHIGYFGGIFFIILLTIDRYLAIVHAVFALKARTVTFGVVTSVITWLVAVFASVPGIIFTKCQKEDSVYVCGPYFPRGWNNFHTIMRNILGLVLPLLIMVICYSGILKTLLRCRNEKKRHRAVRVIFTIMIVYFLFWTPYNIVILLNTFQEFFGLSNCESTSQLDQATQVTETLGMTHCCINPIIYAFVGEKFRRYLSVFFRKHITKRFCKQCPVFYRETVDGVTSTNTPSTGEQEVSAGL
Test: CCR2 inhibitory potency assay, calcium flux method, THP-1 cells stimulated with 100 nM CCL2
Format: cell-based
Experimental: CCR2 inhibitory potency assay was determined using the calcium flux method.
Ca^2+ flux measurements were performed using an FDSS micro-cell device ([…]). On the day of the experiment, THP-1 cells were seeded 20000 cells/well) to wells of black-walled clear-bottom 384-well plates.
THP-1 cells were loaded with a calcium-sensitive fluorescent dye (Screen Quest™ Fluo-8 No Wash Calcium Assay Kit, AAT Bioquest) according to the manufacturer's instructions, then a first addition of either test sample dilutions or vehicle alone were added. 5 minutes later, cells were stimulated with 100 nM CCL2.

[1] = Table 4, CCR2 inhibition, read-out: mean IC50
[2] = Table 3, CCR2 inhibition, read-out: mean IC50

IC50 [1] [nM] | IC50 [2] [nM] | Compound | other results
2.38 |  | CCL2 variant, N-terminal FP(Nle)DGWRGLT (SEQ ID NO: 106), human CCL2 11-76 Met64Nle core (FP[Nle]DGWRGLT; also: followed by human CCL2 11-76 core with Met64Nle) [4P4-CCL2] | 
 | 14.2 | CCL2 variant, N-terminal WVLSSLNAPVT (SEQ ID NO: 17), human CCL2 Met64Nle core [CCL2-M64Nle-1P5] | 
0.892 |  | CCL2 variant, N-terminal FTNPTWAPLQ (SEQ ID NO: 83), human CCL2 11-76 Met64Nle core [3P8-CCL2] | 
 | 183 | CCL2 variant, N-terminal TPGH(Nle)KAPVT (SEQ ID NO: 37), human CCL2 Met64Nle core [CCL2-M64Nle-2P4] | 
 | 18.4 | CCL2 variant, N-terminal TPGYLKAPVT (SEQ ID NO: 19), human CCL2 Met64Nle core [CCL2-M64Nle-NGS-MEO-5] | 
0.82 |  | CCL2 variant, N-terminal FP(Nle)DGWRGQV (SEQ ID NO: 128), human CCL2 11-76 Met64Nle core (FP[Nle]DGWRGQV; also: fused to human CCL2 11-76 core with Met64Nle) [4P16-CCL2] | 
 | 41.5 | CCL2-M64Nle-NGS-MESR-5 (AWGGIR; also: part of CCL2 M64Nle construct, placement of chain in protein not given here) | 
 | 50.2 | CCL2 variant, N-terminal SPSYTRAPVT (SEQ ID NO: 31), human CCL2 Met64Nle core [CCL2-M64Nle-2P7] | 
0.585 |  | CCL2 variant, N-terminal FTNPTWDSFS (SEQ ID NO: 84), human CCL2 11-76 Met64Nle core (not fully specified (C-terminus); also: followed C-terminally by human CCL2 11-76 core with Met64Nle) [3P9-CCL2] | 
 | 31.2 | CCL2 variant, N-terminal ISWFTFNAPVT (SEQ ID NO: 22), human CCL2 Met64Nle core [CCL2-M64Nle-1P13] | 
0.759 |  | CCL2 variant, N-terminal FP(Nle)DGWRPLV (SEQ ID NO: 140), human CCL2 11-76 Met64Nle core (FP[Nle]DGWRPLV; also: fused to human CCL2 11-76 core with Met64Nle) [4P22-CCL2] | 
 | 2.2 | CCL2 variant, N-terminal FP(Nle)DGWAPVT (SEQ ID NO: 10), human CCL2 Met64Nle core [CCL2-M64Nle-2P6] | 
2.86 |  | CCL2 variant, N-terminal FTNPTWRPST (SEQ ID NO: 80), human CCL2 11-76 Met64Nle core (not fully specified (C-terminus); also: followed C-terminally by human CCL2 11-76 core with Met64Nle) [3P5-CCL2] | 
 | 167 | CCL2 variant, N-terminal (Nle)PDWNRAPVT (SEQ ID NO: 35), human CCL2 Met64Nle core [CCL2-M64Nle-NGS-MEO-1] | 
0.93 |  | CCL2 variant, N-terminal FP(Nle)DGWRGLV (SEQ ID NO: 136), human CCL2 11-76 Met64Nle core (FP[Nle]DGWRGLV; also: followed by human CCL2 11-76 core with Met64Nle) [4P20-CCL2] | 
 | 155 | CCL2-M64Nle-NGS-MESR-1 (SYSWVR; also: part of CCL2 M64Nle construct, placement of chain in protein not given here) | 
 | 89.3 | CCL2 variant, N-terminal APQWAAAT, positions 1-2 absent (SEQ ID NO: 32), human CCL2 Met64Nle core [CCL2-M64Nle-2P1] | 
1.45 |  | CCL2 variant, N-terminal FP(Nle)DGWRGET (SEQ ID NO: 110), human CCL2 11-76 Met64Nle core (FP[Nle]DGWRGET; also: followed by human CCL2 11-76 core with Met64Nle) [4P6-CCL2] | 
 | 24.6 | CCL2 variant, N-terminal VTNPTWAPVT (SEQ ID NO: 20), human CCL2 Met64Nle core [CCL2-M64Nle-1P02-F1V] | 

Continued, compound first:

Compound | IC50 [1] [nM] | IC50 [2] [nM] | other results
CCL2 variant, N-terminal FTNPTWDQFT (SEQ ID NO: 86), human CCL2 11-76 Met64Nle core [3P11-CCL2] | 0.703 |  | 
CCL2 variant, N-terminal WYTVGWNAPVT (SEQ ID NO: 21), human CCL2 Met64Nle core [CCL2-M64Nle-1P16] |  | 26.7 | 
CCL2 variant, N-terminal FTNPTWDAFT (SEQ ID NO: 76), human CCL2 11-76 Met64Nle core [3P1-CCL2] | 0.655 |  | 
CCL2 variant, N-terminal RPYLWKAPVT (SEQ ID NO: 12), human CCL2 Met64Nle core [CCL2-M64Nle-2P5] |  | 5.83 | 
CCL2 variant, N-terminal FTNPTWQEYS (SEQ ID NO: 92), human CCL2 11-76 Met64Nle core (not fully specified (C-terminus); also: followed C-terminally by human CCL2 11-76 core with Met64Nle) [3P17-CCL2] | 1 |  | 
CCL2 variant, N-terminal FTNPTWDTQV (SEQ ID NO: 79), human CCL2 11-76 Met64Nle core (not fully specified (C-terminus); also: followed C-terminally by human CCL2 11-76 core with Met64Nle) [3P4-CCL2] | 0.646 |  | 
CCL2 variant, N-terminal FTNPTWDSVT (SEQ ID NO: 98), human CCL2 11-76 Met64Nle core (not fully specified (C-terminus); also: followed C-terminally by human CCL2 11-76 core with Met64Nle) [3P23-CCL2] | 0.678 |  | 
CCL2 variant, N-terminal FP(Nle)DGWHPLV (SEQ ID NO: 132), human CCL2 11-76 Met64Nle core (FP[Nle]DGWHPLV; also: followed by human CCL2 11-76 core with Met64Nle) [4P18-CCL2] | 0.585 |  | 
CCL2 variant, N-terminal FTNPTWDAQV (SEQ ID NO: 77), human CCL2 11-76 Met64Nle core [3P2-CCL2] | 0.883 |  | 
CCL2 variant, N-terminal FTNPTWDHFV (SEQ ID NO: 88), human CCL2 11-76 Met64Nle core [3P13-CCL2] | 0.437 |  | 
CC(C)(C)N1CCN[C@@H](C(=O)N2CCN(C(=O)Nc3ccc(Cl)c(F)c3)CC2)C1 [AZD2423, reference compound] |  |  | IC50 (FIG. 5, calcium flux, THP-1 cells, read-out: IC50 (compiled data from four experiments, mean pIC50) (converted)): 6 nM; fold less potent than 1P2-CCL2 (compiled data from four experiments): 3.53 fold
CCL2 variant, N-terminal IYGVGWNAPVT (SEQ ID NO: 14), human CCL2 Met64Nle core [CCL2-M64Nle-1P14] |  | 9.99 | 
CCL2 variant, N-terminal FP(Nle)DGWRPRQ (SEQ ID NO: 108), human CCL2 11-76 Met64Nle core (FP[Nle]DGWRPRQ; also: fused to human CCL2 11-76 core with Met64Nle) [4P5-CCL2] | 65.8 |  | 
CCL2 variant, N-terminal MYGLGWNAPVT (SEQ ID NO: 23), human CCL2 Met64Nle core [CCL2-M64Nle-1P19] |  | 32.4 | 
CCL2 variant, N-terminal FTNPTWKPYA (SEQ ID NO: 91), human CCL2 11-76 Met64Nle core (not fully specified (C-terminus); also: followed C-terminally by human CCL2 11-76 core with Met64Nle) [3P16-CCL2] | 1.23 |  | 
CCL2 variant, N-terminal FP(Nle)DGWVSRT (SEQ ID NO: 124), human CCL2 11-76 Met64Nle core (FP[Nle]DGWVSRT; also: fused to human CCL2 11-76 core with Met64Nle) [4P14-CCL2] | 0.965 |  | 
CCL2 variant, N-terminal FP(Nle)DGWQGGV (SEQ ID NO: 122), human CCL2 11-76 Met64Nle core (FP[Nle]DGWQGGV; also: followed by human CCL2 11-76 core with Met64Nle) [4P13-CCL2] | 0.534 |  | 
CCL2 variant, N-terminal FTNPTWATHV (SEQ ID NO: 82), human CCL2 11-76 Met64Nle core [3P7-CCL2] | 1.47 |  | 
CCL2 variant, N-terminal FTNPTWSQGV (SEQ ID NO: 94), human CCL2 11-76 Met64Nle core (not fully specified (C-terminus); also: followed C-terminally by human CCL2 11-76 core with Met64Nle) [3P19-CCL2] | 0.914 |  | 
CCL2 variant, N-terminal FTNPTWDAGV (SEQ ID NO: 97), human CCL2 11-76 Met64Nle core [3P22-CCL2] | 1 |  | 
CCL2 variant, N-terminal FTNPTWDAVT (SEQ ID NO: 89), human CCL2 11-76 Met64Nle core [3P14-CCL2] | 0.594 |  | 
